Experimental data from patent US20160046671A1.
Bridges are numbered along the chain shown (N, C = ends). Where no end group is shown, it is not given here. [ ]: non-standard residue; d: D form. S5 = C=CCCC[C@](C)(N)C(=O)O

Molecular target: Wild-type human KRAS protein, N-terminal His6-tag fusion (human), P01116
Test: fluorescence polarization
Settings: modification not given

Binder: RRF[S5]GIY[S5]TNILKTEEGN (staple 4-8) [SAH-SOS A2]
- Kd: 21 nM
